# Data: US20260151453A1, “COMBINATION THERAPY FOR THE TREATMENT OF CANCER” (PEPTOMYC, S.L., priority 2022, published 2026)
# Experiments:
# [1] = tested on: SUM149 cell-derived xenograft (CDX); assay: SUM149 cell-derived xenograft (CDX) model, orthotopic in mammary fat-pad, tumour growth; assay type: in vivo; details: SUM149 CDX mice, 4 weeks; Omomyc 50 mg/kg intravenous once a week; Olaparib 50 mg/kg oral gavage 6 times a week; preliminary
# Experimental: SUM149 cell-derived xenograft (CDX) model mice were used for in vivo studies. Each mouse was inoculated orthotopically in the mammary fat-pad with 5 million cells. As the tumours reached 100 mm^3, mice were randomised in 4 treatment groups. Specifically, mice were treated with Omomyc once a week (50 mg/kg, intravenous), with Olaparib 6 times a week (50 mg/kg oral gavage), with the combination of the 2 drugs (combo) or with vehicle alone for 4 weeks. Relative volume was calculated as a percentage of tumour growth from the day of randomization and beginning of treatments. At end-point the average of the groups were respectively: vehicle 901.8%, Omomyc 663.6%, Olaparib 623.6%, and combination 335.8%.
# [2] = tested on: MDA-MB-231 cells; assay: Viability of MDA-MB-231 TNBC cells treated alone and in combination for 5 days; synergy score by SynergyFinder.org; assay type: cell-based; details: single agent, 5 days (FIG. 1A)
# Experimental: Triple negative breast cancer (TNBC) cell lines MDA-MB-231, SUM149 and MX-1 were treated with increasing concentrations of Olaparib or Talazoparib and the Omomyc peptide sequence SEQ ID NO: 4, alone and in combination, for 5 days.
# Then synergy score was calculated by SynergyFinder.org after having carried out 3 biological replicates.
# (§1) Synergy scores can be interpreted as the average excess response due to drug interactions. Synergy scores close to 0 give limited confidence in synergy or antagonism. So, when the synergy scores are: less than −10, the interaction between two drugs is likely to be antagonistic. From −10 to 10, the interaction between two drugs is likely to be additive. Greater than 10, the interaction between two drugs is likely to be synergistic.
# [3] = tested on: MIA-PACA-2 cells; assay: Viability of PDAC MIA-PACA-2 cells treated alone and in combination for 5 days; synergy score by SynergyFinder.org; assay type: cell-based; details: MIA-PACA-2 cells, Omomyc added to Olaparib
# From the text: as §1
# Pancreatic ductal adenocarcinoma (PDAC) MIA-PACA-2 cells were treated with increasing concentrations of Olaparib and the Omomyc peptide sequence SEQ ID NO: 4 alone and in combination, for 5 days.
# Then synergy score was calculated by SynergyFinder.org after having carried out 3 biological replicates as described above.
# [4] = tested on: MDA-MB-231 cells; assay: Microarray analysis of gene expression in MDA-MB-231 cells; assay type: cell-based; details: data not shown
molecule,measurement,setting,value
"Omomyc: Purified recombinant polypeptide of SEQ ID NO: 4: mutated bHLHZip domain of Myc (E61T, E68I, R74Q, R75N) with N-terminal methionine (protein) TEENVKRRTHNVLERQRRNELKRSFFALRDQIPELENNEKAPKVVILKKATAYILSVQAETQKLISEIDLLRKQNEQLKHKLEQLRNSCA","Relative volume, percentage of tumour growth from the day of randomization (group average at end-point)",[1],663.6%
same,viability of cells,[2],significantly reduces viability
same,reversal of olaparib resistance,[3],able to revert olaparib resistance
same,expression of homologous recombination (HR-) and BRCA1/2-deficiency related genes and pathways,[4],reduces the expression
